Measurements: PMC3835915, “Diversification of Fungal Specific Class A Glutathione Transferases in Saprotrophic Fungi” (PLoS ONE, 2013)

Substrate: S=C=NCCc1ccccc1
Experiment: purified protein
Type: biochemical, Phanerodontia chrysosporium
Settings: 5 mM GSH, pH 6.5, 2% acetonitrile

B1: PcGSTFuA1 (Phanerodontia chrysosporium) (protein)
chain: MAQPIVFYDIPSNERIKHSPWSPNTWKIRYALNYKGLKYKTEWVEYPDIAGVVQKLGGKPTEKTPDGRDHYTLPVIYDPNTKKVVEDSAAIAKYLDETYPDTPKLFPAGTDAFQAAFLDFAWPVLGFPVFMLVILDTANSLLPRSHDYFRSTREQKFGKKLEELATEEEWAKVEAGLAKLKGYLDANGKGNDLLLMGAQGGITYSDIQIASFFVWAKIIWGEGSEKWKRLISLHDGKWAQFYAQFTKFEQVDV
notes: full length, untagged, pET-3d, E. coli BL21(DE3) pSBET; Ala inserted after Met1; dimer; primers encode N-term MAQPIVF, C-term EQVDV
Km: 119.0 ± 14.4 µM | kcat: 8.515 ± 0.267 s⁻¹
